Assay results as given in patent publication US8227408B2, “Leptin as an anti-amyloidogenic biologic and methods for delaying the onset and reducing Alzheimer's disease-like pathology” (Neurotez, Inc., priority 2005, dated 2012).

Tests used:
[1] = test system: primary neurons; assay: Filipin staining of primary neurons; format: cell-based, rat; details: about 5 h
Method: (§1) Leptin was detected using a rabbit polyclonal antibody raised against mouse leptin, corss-reacting with human leptin (obtained from Dr. A. F. Parlow, Harbor-UCLA, CA). Immunofluorescent confocal microscopy was performed on 2% paraformaldehyde-fixed primary neural cells. Filipin staining was performed as described (Feng et al., Nat Cell Biol. 5:781-92 (2003)).
(§2) Neural cultures from ε15 rat cerebral cortex were processed for enrichment of neurons (a-d) or astrocytes (e-h) as described (Takeshima et al., J. Neurosci. Methods 67: 27-41 (1996)). After about 7 days to about 10 days in culture, cultures were treated for about 5 h with about 10 μg/ml cholesterol (b, f) or about 400 ng/ml leptin plus cholesterol (c, g) or leptin alone (d, h). Controls (a, e) were treated with culture media alone. Filipin staining was performed as described (Feng et al., Nat. Cell Biol. 5: 781-92 (2003)). Neurons (i-k) and astrocytes (l-n) prepared as above were treated with 0 μM (i, l), 5 μM (j, m) or 10 μM cholesterol (k, n) for 5 h. Immunostaining was performed for leptin (A.F.Parlow, Harbor-UCLA, CA).

[2] = test system: BACE; assay: BACE activity, APP and flotillin in sucrose gradient fractions of treated SY5Y cells (fluorescence quenching assay); format: cell-based, human
Method: In panel (a), Neuro2a cells stably transfected with hyg-sa134 were treated for about 2 h or about 5 h with about 100 ng/ml leptin, Ob (black); about 125 mg/ml cyclodextrin, CDX (striped gray); about 5 mg/ml cholesterol, Ch (pale gray); and leptin plus cholesterol, Ob+Ch (medium gray). Media were collected and assayed for total Aβ by ELISAs (Figueiredo-Pereira et al., J Neurochem. 72:1417-22 (1999)). […] Water soluble cholesterol (Sigma-Aldrich, Mo.) is a solution made of cholesterol balanced with CDX (40 mg cholesterol per gr CDX). […] Extracts prepared from harvested cells were analysed by SDS-PAGE and Western blotting using an antibody directed against the C-terminal fraction of APP (C-APP, lanes 1-4) or actin (top lanes 5-8) or full-length APP (bottom lanes 5-8). […] Fractions collected from the bottom of the gradient were analysed by SDS-PAGE and Western blotting for the detection of APP and flotillin (marker for lipid rafts). […] In panel (e), fractions collected as above were assayed for β-secretase activity using a fluorescence-quenching assay (QTL Biosystems, NM). The results are expressed as the percent distribution of BACE activity within the gradient derived from cell cultures in the absence (black) or presence (gray) of leptin in the medium. […]

[3] = test system: astrocytes; assay: Filipin staining of astrocytes; format: cell-based, rat; details: about 5 h
Method: as §1, §2

B1: Leptin: peptide hormone controlling adaptive metabolic mechanisms to energy availability; leptin (Harbor-UCLA) in vitro, recombinant murine leptin in mice (protein, UniProt P41160 22-167, looked up)
Leptin: VPIQKVQDDTKTLIKTIVTRINDISHTQSVSAKQRVTGLDFIPGLHPILSLSKMDQTLAVYQQVLTSLPSQNVLQIANDLENLRDLLHLLAFSKSCSLPQTSGLQKPESLDGVLEASLYSTEVVALSRLQGSLQDILQQLDVSPEC
increase in filipin labelling by cholesterol ([1]; neurons, leptin about 400 ng/ml plus cholesterol about 10 μg/ml): prohibited an increase
filipin labelling ([1]; primary neurons, about 400 ng/ml leptin): diminished filipin labelling
activity of BACE in the low density fractions ([2]; about 400 ng/ml leptin, about 5 h, sucrose gradient fractions): almost absent
flotillin migration / elution position on sucrose gradient ([2]; compared to controls): migrated at heavier subcellular fractions
filipin labelling ([3]; about 400 ng/ml leptin): diminished filipin labelling
increase in filipin labelling by cholesterol ([3]; leptin about 400 ng/ml plus cholesterol about 10 μg/ml): prohibited an increase
